In the nanobody polyreactivity screen of Harvey et al. (2022):

Test: yeast display, Sf9 membrane polyspecificity reagent, FACS + sequencing; frameworks hold sequencing errors
Procedure, shortened: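 Galactose induction of a Saccharomyces cerevisiae BJ5465 synthetic nanobody display library ran 36–48 hours. The cells were then stained for 1 hour at 4 °C with 10% biotinylated, detergent-solubilized Sf9 membrane reagent, pulled down on streptavidin microbeads and FACS-sorted into low and high (top ~1%) gates on expression and reagent-binding fluorescence. Labels for polyreactivity follow the gate of origin.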

**Q.** For “QVQLVESGGGLVQAGGSLRLSCDASGSIFGRNAMGWYRQAPGKERELVAAISWRGGRTYYADSVKGRFTISRDNAKNTVYLQMNSLKPEDTAVYYCAATSGRPYEYGYWGQGTQVTVSS”, which “polyreactivity (PSR sort gate)” value is on record?
**A.** high polyreactivity

**Q.** For “QVQLVESGGGLVQAGGSLRLSCDASGSIFLVYAMGWYRQAPGKERELVAAITSGGSTNYADSVKGRFTISRDNAKNTVYFQMNSLKPEDTAVYNCAAERGDTAYRKYDYWGQGTQVTVSS”, which “polyreactivity (PSR sort gate)” value is on record?
**A.** low polyreactivity

**Q.** For “QVQLVESGGGLVQAGGSLRLSCDASGSIFMYNAMGWYRQAPGKERELVAAISSSSDRTYYADSVKGRFTISRDNAKKTVYLQMNSLKPEDTAVYYCNVVYIGWRKYEYWGQGTQVTVSS”, which “polyreactivity (PSR sort gate)” value is on record?
**A.** high polyreactivity

**Q.** With “QVQLVESGGGLVQAGGSLRLSCDASGSIFRAYAMRWYRQAPGKERELVAAISSSSGRTYYADSVKGRFTISRDNAKTTVYLQLNSLKPEDTAVYYCAVTASTLVTSATYDYWGQGTQVTLSS” as the sequence, how does the “polyreactivity (PSR sort gate)” value read?
**A.** low polyreactivity

**Q.** Which “polyreactivity (PSR sort gate)” value does the source give for “QVQLVESGGGLVQAGGSLRLSCDASGSIFRLYAMGWYRQAPGKERELVARITRRCGDTYADSVKGRFTISRDNAKNTVYLQMNSLKREDTAVYYCAADGYHRYPGSSGYGYWGQGTQVTVSS” here?
**A.** high polyreactivity

**Q.** With “QVQLVESGGGLVQAGGSLRLSCDASGSIFYGYTMGWYRQDPGKERELVAAIRKSGGSTNYADSVKGRFTISRDNAKNTVYLQMNSLKPEDTAVYYCAASYYRGRGYYWGQGTQVTVSS” as the sequence, how does the “polyreactivity (PSR sort gate)” value read?
**A.** high polyreactivity

**Q.** With “QVQLVESGGGLVQAGGSLRLSCDASGSIFYSKAMGWYRQAHGKERELVAAITVGGGRTYYADSVKGRFTISRDNAKNTVYLQMNSLNPEDTAVYYCAADSHASTYDYWGQGTQVTVSS” as the sequence, how does the “polyreactivity (PSR sort gate)” value read?
**A.** low polyreactivity

**Q.** For “QVQLVESGGGLVQAGGSLRLSCDASGSIVRYNAMGWYRQAPGKERELVADISTSGGSTYYADSVKGRFTISRDNANNTVYVQMNSLKPEDTAVYYCAKPWYSSGFDYWGQGTQVTVSS”, which “polyreactivity (PSR sort gate)” value is on record?
**A.** high polyreactivity

**Q.** For “QVQLVESGGGLVQAGGSLRLSCDASGSIYRLNAMGWYRQAPGKEMELVAAITWSDSSTYYADSVKGRFTISRDNAKYTVYLQMNSLKPEDTAVYYCAADPQSYKYDYWGQGTQVTVSS”, which “polyreactivity (PSR sort gate)” value is on record?
**A.** low polyreactivity

**Q.** For “QVQLVESGGGLVQAGGSLRLSCDASGSTFDVNTMGWYRQAPGKERELVAAIRLRGGSTYYADSVKGRFTISRDNAKNTVYLLMISLKPEDTAVYYCAADYTLIYDYCGQGTQVTVSS”, which “polyreactivity (PSR sort gate)” value is on record?
**A.** low polyreactivity

**Q.** With “QVQLVESGGGLVQAGGSLRLSCDASGSTFFANAMGWYRQAPGKERELVAAITIGNTNYADSVKGRFTISRDNAKYTVYLQMNSLKPEDTAVYYCNASHVSHYRARDYWGQGTQVTVSS” as the sequence, how does the “polyreactivity (PSR sort gate)” value read?
**A.** low polyreactivity

**Q.** For “QVQLVESGGGLVQAGGSLRLSCDASGSTFFTYAMGWYRQSPGKERELVAAITRGGSTYYADSVKGRFTISRDNAKHTVYLQMNSLKPEDTAVYYCNVDPFTRQNHGNYWGQGTQVTVSS”, which “polyreactivity (PSR sort gate)” value is on record?
**A.** high polyreactivity

**Q.** For “QVQLVESGGGLVQAGGSLRLSCDASGSTFGYYTMVWYRPSPGKERELVAAISSSGGSTYYADSVKGRFTISRDNAKNTVYLQMYSLKPEDTAVYYCNAEYGFYRAGSRGEYWGQGTQVTVSS”, which “polyreactivity (PSR sort gate)” value is on record?
**A.** low polyreactivity

**Q.** For “QVQLVESGGGLVQAGGSLRLSCDASGSTFRWYTMGWYRPAPGKEREVVATISRSGGSTYNADSVKGRFTISRDNAKNTVYLQMNSLKPEDTAVYYCNKLGVSTHSYKYYYWGQGTQVTVSS”, which “polyreactivity (PSR sort gate)” value is on record?
**A.** high polyreactivity

**Q.** With “QVQLVESGGGLVQAGGSLRLSCDASGSTFSYYTMGWYRQAPGKERELVAAITGSGGRTYYADSVKGRFTISRDNAKNTVYLQMNSLKPEDSAVYYCAARLYTAADHYNYWGQGTQVTVSS” as the sequence, how does the “polyreactivity (PSR sort gate)” value read?
**A.** high polyreactivity

**Q.** Which “polyreactivity (PSR sort gate)” value does the source give for “QVQLVESGGGLVQAGGSLRLSCDASGSTFYPYVMGWYRQAPGKERELVARITWSGGSTYYADSVKGRFTISRDNAKNTVYLQMNSLKPEDTAVYYCAALRYVNLLAQAYEYWGQGTQVTVSS” here?
**A.** high polyreactivity

**Q.** With “QVQLVESGGGLVQAGGSLRLSCDASGSTIDWYAMGWYRQAPGKERELVAGITISAGRTYYADSVKGRFTISRDNAKNTVYLQMNSLKPEDTAVYYCAADVYYYLDMDHWGQGTQVTVSS” as the sequence, how does the “polyreactivity (PSR sort gate)” value read?
**A.** low polyreactivity
